Substrate: O=C[C@H](O)COP(=O)(O)O
Experiment: purified protein
Details: phosphorylation direction, 0.6 mM NAD+, 50 mM triethanolamine, 50 mM sodium phosphate (printed 'bisphosphate'), 0.2 mM EDTA, 25 °C, pH not stated, G3P 0.25-5 mM

B1: GeGAPDH1 (Gastrodia elata) (protein)
chain: MASTAFVGSVTPLSEASFPFASSTRAPEPFRVFCWRSRSSEGSSVLCASTSCSKFPLAAISTQKSNRRNFQHTKATATETPPVVSRSSSDGKTKVGINGFGRIGRLVLRIAASRDDIEVVAVNDPFVDAKYMAYMFKYDSTHGTFKGTIKVVDESTIEIDGKRIAVTSKRDPSEITWSDFGAEYVVESSGVFTTMDKASAHLKGGAKKVVISAPSADAPMFVVGVNEQMYQPHMNIVSNASCTTNCLALLAKVVHEEFGIVEGLMTTVHATTATQKTVDGPSMKDWRGGRGASQNIIPSSTGAAKAVGKVLPELNGKLTGMAFRVPTTNVSVVDLTCRLANDASYEDVKAAVRAASEGCLKGILGYTDEDVVSNDFIGDSRSSIFDAKAGIGLGTNFMKLVSWYDNEWGYSNRVLDLIQHVARVCAHK
Work on B1 yielded a Km of 312 µM.
